Assay results as given in patent publication US20250320281A1.

What was measured:
Assay in all cases: cell-based or functional assay
[1] = molecular target: HIV-1 Env of isolate MGRM-AE-006 (subtype AE) (HIV-1)
[2] = molecular target: HIV-1 Env of isolate MGRM-AE-004 (subtype AE) (HIV-1)
[3] = molecular target: HIV-1 Env of isolate MGRM-AE-003 (subtype AE) (HIV-1)
[4] = molecular target: HIV-1 MGRM-AG-005 Env (pseudovirus) (HIV-1)
[5] = molecular target: HIV-1 Env of isolate MGRM-Chronic-B-003 (subtype B pseudovirus) (HIV-1)
[6] = molecular target: HIV-1 Env of isolate MGRM-Chronic-B-011 (subtype B pseudovirus) (HIV-1)
[7] = molecular target: HIV-1 JRCSF Env (pseudovirus, clade B) (HIV-1) (UniProt P20871)
[8] = molecular target: HIV-1 92RW020 Env (pseudovirus, clade A) (HIV-1)
[9] = molecular target: HIV-1 Env of isolate MGRM-AG-005 (clade AG), on pseudovirus (HIV-1)
[10] = molecular target: HIV-1 Env of isolate TRJ04551.58 (subtype B pseudovirus) (HIV-1)
[11] = molecular target: HIV-1 93IN905 Env (pseudovirus, clade C) (HIV-1)
[12] = molecular target: HIV-1 Env of isolate MGRM-D-021 (pseudovirus) (HIV-1)
[13] = molecular target: HIV-1 Env of isolate MGRM-D-029 (pseudovirus) (HIV-1)
[14] = molecular target: HIV-1 92TH021 envelope glycoprotein (Env) on pseudovirus (HIV-1)
[15] = molecular target: HIV-1 CMU02 envelope glycoprotein (Env) on pseudovirus (HIV-1)
[16] = molecular target: HIV-1 Env of isolate 92UG031 (HIV-1)
[17] = molecular target: HIV-1 Env of isolate MG RM-D-013 (HIV-1)
[18] = molecular target: HIV-1 envelope glycoprotein (Env) of isolate MGRM-C-025 (HIV-1)
[19] = molecular target: HIV-1 Env of isolate MGRM-AG-009 (subtype AG) (HIV-1)
[20] = molecular target: HIV-1 envelope glycoprotein (Env) of isolate MGRM-C-008 (HIV-1)
[21] = molecular target: HIV-1 Env of isolate MGRM-C-005 (subtype C) (HIV-1)
[22] = molecular target: HIV-1 envelope glycoprotein (Env) of isolate MGRM-C-027 (HIV-1)
[23] = molecular target: HIV-1 Env of isolate MGRM-A-012 (subtype A) (HIV-1)
[24] = molecular target: HIV-1 Env of isolate QH0692.42 (subtype B) (HIV-1)
[25] = molecular target: HIV-1 Env of isolate MG RM-D-001 (HIV-1)
[26] = molecular target: HIV-1 Env of isolate 98CN009 (HIV-1)
[27] = molecular target: HIV-1 Env of isolate APV-17 (HIV-1)

4993_K13 (PGT-141) (antibody), sequence (VH): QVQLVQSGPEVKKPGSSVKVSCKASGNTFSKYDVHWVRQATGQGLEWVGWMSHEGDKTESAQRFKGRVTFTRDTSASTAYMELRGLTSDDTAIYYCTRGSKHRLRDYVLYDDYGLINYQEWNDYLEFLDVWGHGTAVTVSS
4993_K13 (PGT-141) (antibody), sequence (VL): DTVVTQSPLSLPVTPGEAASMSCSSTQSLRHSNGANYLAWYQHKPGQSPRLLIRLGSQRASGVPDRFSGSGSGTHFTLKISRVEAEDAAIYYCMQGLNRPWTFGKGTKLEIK
4970_K22 (PGT-144) (antibody), sequence (VH): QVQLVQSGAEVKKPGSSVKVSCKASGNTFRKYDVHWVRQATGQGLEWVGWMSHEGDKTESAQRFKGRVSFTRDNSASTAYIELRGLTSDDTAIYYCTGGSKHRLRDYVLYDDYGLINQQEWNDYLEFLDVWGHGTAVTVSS
4970_K22 (PGT-144) (antibody), sequence (VL): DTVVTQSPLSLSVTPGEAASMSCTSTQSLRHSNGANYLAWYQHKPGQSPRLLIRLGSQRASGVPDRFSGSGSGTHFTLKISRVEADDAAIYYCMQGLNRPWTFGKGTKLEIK

Substance | IC50 (µg/mL), pseudovirus neutralization [1] [µg/mL] | IC50 (µg/mL), pseudovirus neutralization [2] [µg/mL] | IC50 (µg/mL), pseudovirus neutralization [3] [µg/mL] | IC50 (µg/mL), pseudovirus neutralization [5] [µg/mL] | IC50 (µg/mL), pseudovirus neutralization [6] [µg/mL] | IC50 neutralization [7] [µg/mL] | IC50 neutralization [8] [µg/mL] | IC50, pseudovirus neutralization [9] [µg/mL] | IC50 (µg/mL), pseudovirus neutralization [10] [µg/mL] | neutralization IC50 (pseudovirus) [4] [µg/mL] | IC50 neutralization [11] [µg/mL] | IC50, pseudovirus neutralization [12] [µg/mL] | IC50, pseudovirus neutralization [13] [µg/mL] | other results
4993_K13 (PGT-141) (antibody) | > 50 | 0.001 | > 50 |  |  |  |  |  |  |  |  |  |  | IC50 (neutralizing activity, pseudovirus) [4]: 0.392 µg/mL
4970_K22 (PGT-144) (antibody) | > 50 | 0.104 | > 50 |  |  |  |  |  |  |  |  |  |  | IC50 (neutralizing activity, pseudovirus) [4]: > 10 µg/mL
5123_A06 (PGT-125) (antibody) |  |  |  | 0.157 | 3.23 | 0.006 | 0.0028 | > 10 | 0.019 | > 10 | 0.0137 | 0.015 | > 50 | 
5141_B17 (PGT-126) (antibody) |  |  |  | 0.041 | 0.108 | 0.0061 | 0.0046 | 1.35 | 0.025 | 1.35 | 0.0194 | 0.047 | > 50 | IC50, pseudovirus neutralization [14]: 0.115 µg/mL; IC80 (pseudovirus neutralization) [14]: 1.62 µg/mL; IC90 (pseudovirus neutralization) [14]: 6.91 µg/mL; IC95 (pseudovirus neutralization) [14]: > 10 µg/mL; IC50, pseudovirus neutralization [15]: > 10 µg/mL; IC80 (pseudovirus neutralization) [15]: > 10 µg/mL; IC90 (pseudovirus neutralization) [15]: > 10 µg/mL; IC95 (pseudovirus neutralization) [15]: > 10 µg/mL
5136_H01 (PGT-131) (antibody) | 0.026 | > 50 | 1.41 |  |  |  |  |  |  |  |  |  |  | IC50 [16]: > 50 µg/mL; IC50 (µg/mL), pseudovirus neutralization [17]: 4.14 µg/mL; IC50 (µg/mL), pseudovirus neutralization [18]: > 50 µg/mL; IC50 (µg/mL), pseudovirus neutralization [19]: > 50 µg/mL; IC50 (µg/mL), pseudovirus neutralization [20]: > 50 µg/mL; IC50 neutralization [21]: 1.36 µg/mL; IC50 (µg/mL), pseudovirus neutralization [22]: 0.065 µg/mL; IC50 (µg/mL), pseudovirus neutralization [23]: > 50 µg/mL; IC50 neutralization [24]: > 50 µg/mL; IC50 (µg/mL), pseudovirus neutralization [25]: > 50 µg/mL; IC50 (µg/mL), pseudovirus neutralization [26]: 4.05 µg/mL; neutralization IC50 [27]: > 50 µg/mL
4858_P08 (PGT-123) (antibody) |  |  |  | 0.008 | > 50 | 0.0423 | 0.0038 | 0.104 | 16.9 | 0.104 | 0.0071 | 11.1 | > 50 | neutralization IC50 [14]: > 10 µg/mL; neutralization IC80 [14]: > 10 µg/mL; neutralization IC90 [14]: > 10 µg/mL; neutralization IC95 [14]: > 10 µg/mL; neutralization IC50 [15]: > 10 µg/mL; neutralization IC80 [15]: > 10 µg/mL; neutralization IC90 [15]: > 10 µg/mL; neutralization IC95 [15]: > 10 µg/mL
5114_A19 (PGT-128) (antibody) | 0.044 | > 50 | 0.18 |  |  |  |  |  |  |  |  |  |  | IC50 [16]: > 50 µg/mL; IC50 (µg/mL), pseudovirus neutralization [17]: 8.85 µg/mL; IC50 (µg/mL), pseudovirus neutralization [18]: 10.5 µg/mL; IC50 (µg/mL), pseudovirus neutralization [19]: 0.021 µg/mL; IC50 (µg/mL), pseudovirus neutralization [20]: 0.373 µg/mL; IC50 neutralization [21]: 0.03 µg/mL; IC50 (µg/mL), pseudovirus neutralization [22]: 0.081 µg/mL; IC50 (µg/mL), pseudovirus neutralization [23]: 0.025 µg/mL; IC50 neutralization [24]: 0.029 µg/mL; IC50 (µg/mL), pseudovirus neutralization [25]: 0.138 µg/mL; IC50 (µg/mL), pseudovirus neutralization [26]: 0.025 µg/mL; neutralization IC50 [27]: 0.016 µg/mL
4838_L06 (PGT-121) (antibody) |  |  |  | 0.011 | > 50 |  |  |  | 7.09 |  |  | 5.33 | > 50 | 
5145_B14 (PGT-127) (antibody) |  |  |  | 0.12 | 0.297 |  |  |  | 0.063 |  |  | 0.056 | > 50 | 
